This passage reports Kd results from PMC13384500, “RNA selectively modulates activity of virulent amyloid PSMα3 and host-defense LL-37 via phase separation and aggregation dynamics”.

The target of series [1] is T1, PSMα3 (Staphylococcus aureus, UniProt P0C805).
T1 chain: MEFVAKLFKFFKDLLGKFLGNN
Nature of the series: EMSA; apparent Kd, Hill fit with n > 1; 40 nM RNA; weaker than Poly(AU). Conditions: tags: none (unlabeled).

Series [2] addresses T1, PSMα3. Nature of the series: EMSA; apparent Kd, Hill fit with n > 1; 40 nM RNA. Particulars: tags: none (unlabeled).

Take AAAAAAAAAAAAAAAAAAAAAAAAAAAAAA (ssRNA) [Poly(A) RNA (30-nt oligoA)]: the Kd with PSMα3 [1] is 94.5 ± 5.4 µM.

B1: Poly(AU) RNA (30-nt oligoA/oligoU) (dsRNA)
RNA 1: AAAAAAAAAAAAAAAAAAAAAAAAAAAAAA
RNA 2: UUUUUUUUUUUUUUUUUUUUUUUUUUUUUU
Regarding B1, the Kd with PSMα3 [2] is 61.8 ± 1.6 µM.
